Source: US20050037969A1 (ARBOR VITA, published 2005)
Ends that are not written are not given here. * marks the point of attachment. Biotin = O=C1N[C@H]2[C@H](CS[C@H]2CCCCC(=O)*)N1

T1: K858 PDZ-GST fusion protein (Homo sapiens (Human), UniProt Q8WWI1 1038-1131)
T1 construct: Order of GST and PDZ part and limits not seen in the excerpts
T1 sequence: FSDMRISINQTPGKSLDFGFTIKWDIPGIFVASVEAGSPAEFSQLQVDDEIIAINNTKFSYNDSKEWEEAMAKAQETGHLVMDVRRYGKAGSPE

T2: GST-AF6 PDZ domain fusion protein (Homo sapiens (Human), UniProt P55196 1001-1093)
T2 construct: also called af-6 protein; not shown: glutathione S-transferase encoded by vector pGEX-3X (Pharmacia)
T2 sequence: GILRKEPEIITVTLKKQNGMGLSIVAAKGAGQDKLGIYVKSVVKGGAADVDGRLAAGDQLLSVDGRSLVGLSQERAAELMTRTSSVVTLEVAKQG

T3: GST-cytohesin binding protein PDZ domain fusion protein (Homo sapiens (Human), UniProt O60759 74-165)
T3 construct: also called CBP; not shown: glutathione S-transferase encoded by vector pGEX-3X (Pharmacia)
T3 sequence: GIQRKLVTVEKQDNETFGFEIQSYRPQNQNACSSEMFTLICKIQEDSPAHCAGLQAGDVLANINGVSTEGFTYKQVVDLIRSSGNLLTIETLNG

T4: GST-KIAA0303 PDZ domain fusion protein (Homo sapiens (Human), UniProt O15021 1138-1228)
T4 construct: also called K303; not shown: glutathione S-transferase encoded by vector pGEX-3X (Pharmacia)
T4 sequence: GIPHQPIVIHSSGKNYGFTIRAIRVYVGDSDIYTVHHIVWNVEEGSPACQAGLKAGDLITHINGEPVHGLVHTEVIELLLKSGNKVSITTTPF

T5: SP short PDZ-GST fusion protein (Homo sapiens (Human), UniProt O43464 350-435)
T5 construct: The label SP short is not explained in the excerpts
T5 sequence: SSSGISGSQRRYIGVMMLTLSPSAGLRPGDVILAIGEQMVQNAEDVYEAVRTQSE

T6: ConEn PDZ-GST fusion protein (Homo sapiens (Human), UniProt Q969H4 193-287)
T6 construct: The label ConEn is not explained in the excerpts
T6 sequence: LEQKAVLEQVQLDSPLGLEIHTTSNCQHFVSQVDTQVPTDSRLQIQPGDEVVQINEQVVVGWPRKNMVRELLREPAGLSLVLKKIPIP

T7: GST-RGS12 PDZ domain fusion protein (human, UniProt O14924 17-85)
T7 construct: also called human regulator of G-protein signalling 12; not shown: glutathione S-transferase encoded by vector pGEX-3X (Pharmacia)
T7 sequence: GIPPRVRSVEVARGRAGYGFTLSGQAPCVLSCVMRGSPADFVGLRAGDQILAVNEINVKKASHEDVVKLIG

T8: GST-TAX-IP40 PDZ domain fusion protein (human, UniProt Q6B4M5 150-252 (rat entry))
T8 construct: also called TAX40; not shown: glutathione S-transferase encoded by vector pGEX-3X (Pharmacia)
T8 sequence: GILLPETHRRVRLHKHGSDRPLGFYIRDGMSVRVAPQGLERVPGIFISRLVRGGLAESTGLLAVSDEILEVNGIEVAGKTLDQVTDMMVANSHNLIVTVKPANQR

T9: GST-PTN-4 PDZ domain fusion protein (Homo sapiens (Human), UniProt P29074 517-605)
T9 construct: also called protein-tyrosine phosphatase meg1; not shown: glutathione S-transferase encoded by vector pGEX-3X (Pharmacia)
T9 sequence: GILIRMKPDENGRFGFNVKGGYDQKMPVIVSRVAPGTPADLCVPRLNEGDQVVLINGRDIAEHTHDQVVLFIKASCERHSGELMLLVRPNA

T10: GST-prIL16 fusion protein (PDZ domains 1-2) (Homo sapiens (Human), UniProt Q14005 1111-1324)
T10 construct: also called putative interleukin 16 precursor; not shown: glutathione S-transferase encoded by vector pGEX-3X (Pharmacia)
T10 sequence: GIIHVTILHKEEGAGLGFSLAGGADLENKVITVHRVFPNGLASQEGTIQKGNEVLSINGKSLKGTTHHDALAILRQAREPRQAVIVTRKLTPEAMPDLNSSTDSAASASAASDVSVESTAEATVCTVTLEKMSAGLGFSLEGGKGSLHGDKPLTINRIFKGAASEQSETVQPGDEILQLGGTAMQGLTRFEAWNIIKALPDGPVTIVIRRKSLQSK

T11: GST-MPP1 PDZ domain fusion protein (Homo sapiens (Human), UniProt Q00013 67-152)
T11 construct: also called p55; 55 Kd erythrocyte membrane protein; not shown: glutathione S-transferase encoded by vector pGEX-3X (Pharmacia)
T11 sequence: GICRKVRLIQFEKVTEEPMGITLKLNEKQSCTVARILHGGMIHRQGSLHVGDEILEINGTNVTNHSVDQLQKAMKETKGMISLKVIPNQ

T12: GST-TAX-IP2 PDZ domain fusion protein (human, UniProt O14908 129-216)
T12 construct: also called TAX-1P2; TAX2; not shown: glutathione S-transferase encoded by vector pGEX-3X (Pharmacia)
T12 chain: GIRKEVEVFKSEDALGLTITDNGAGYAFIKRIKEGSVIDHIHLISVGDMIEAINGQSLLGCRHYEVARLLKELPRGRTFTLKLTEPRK


molecular target: T13, GST-TIAM1 PDZ domain fusion protein (Homo sapiens (Human), UniProt Q13009 845-931); test: A/G assays
T13 construct: also called TLAM1; T-lymphoma invasion and metastasis inducing protein 1; not shown: glutathione S-transferase encoded by vector pGEX-3X (Pharmacia)
T13 sequence (Q13009 other isoform, or with tags, fused parts or gaps): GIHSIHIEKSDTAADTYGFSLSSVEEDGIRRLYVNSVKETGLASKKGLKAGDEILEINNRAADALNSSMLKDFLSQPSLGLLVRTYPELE

binding result	Binder
no binding	Biotin-ARHRVTSYTSSSVNVSSNL [CDW128A (IL8RA) C-terminal peptide AA29.1L, biotinylated]
no binding	Biotin-QATSENGHSARQHVVADTEL [CD34 C-terminal peptide AA7L, biotinylated]

molecular target: T14, NSP PDZ-GST fusion protein (Homo sapiens (Human), UniProt Q92743 370-466); test: A/G assays
T14 construct: The label NSP is not explained in the excerpts
T14 sequence (Q92743 other isoform, or with tags, fused parts or gaps limits assumed): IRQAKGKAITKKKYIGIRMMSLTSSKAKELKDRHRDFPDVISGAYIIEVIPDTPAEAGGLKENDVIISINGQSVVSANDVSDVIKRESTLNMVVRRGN

binding result	Binder
no binding	Biotin-ARHRVTSYTSSSVNVSSNL [CDW128A (IL8RA) C-terminal peptide AA29.1L, biotinylated]
no binding	Biotin-QATSENGHSARQHVVADTEL [CD34 C-terminal peptide AA7L, biotinylated]

molecular target: T1, K858 PDZ-GST fusion protein; test: A/G assays

binding result	Binder
no binding	Biotin-ARHRVTSYTSSSVNVSSNL [CDW128A (IL8RA) C-terminal peptide AA29.1L, biotinylated]
no binding	Biotin-QATSENGHSARQHVVADTEL [CD34 C-terminal peptide AA7L, biotinylated]

molecular target: T2, GST-AF6 PDZ domain fusion protein; test: A/G assays

binding result	Binder
no binding	Biotin-ARHRVTSYTSSSVNVSSNL [CDW128A (IL8RA) C-terminal peptide AA29.1L, biotinylated]
no binding	Biotin-QATSENGHSARQHVVADTEL [CD34 C-terminal peptide AA7L, biotinylated]

molecular target: T3, GST-cytohesin binding protein PDZ …; test: A/G assays

binding result	Binder
no binding	Biotin-ARHRVTSYTSSSVNVSSNL [CDW128A (IL8RA) C-terminal peptide AA29.1L, biotinylated]
no binding	Biotin-QATSENGHSARQHVVADTEL [CD34 C-terminal peptide AA7L, biotinylated]

molecular target: T4, GST-KIAA0303 PDZ domain fusion protein; test: A/G assays

binding result	Binder
no binding	Biotin-ARHRVTSYTSSSVNVSSNL [CDW128A (IL8RA) C-terminal peptide AA29.1L, biotinylated]
no binding	Biotin-QATSENGHSARQHVVADTEL [CD34 C-terminal peptide AA7L, biotinylated]

molecular target: T5, SP short PDZ-GST fusion protein; test: A/G assays

binding result	Binder
no binding	Biotin-ARHRVTSYTSSSVNVSSNL [CDW128A (IL8RA) C-terminal peptide AA29.1L, biotinylated]
no binding	Biotin-QATSENGHSARQHVVADTEL [CD34 C-terminal peptide AA7L, biotinylated]

molecular target: T6, ConEn PDZ-GST fusion protein; test: A/G assays

binding result	Binder
no binding	Biotin-ARHRVTSYTSSSVNVSSNL [CDW128A (IL8RA) C-terminal peptide AA29.1L, biotinylated]
no binding	Biotin-QATSENGHSARQHVVADTEL [CD34 C-terminal peptide AA7L, biotinylated]

molecular target: T7, GST-RGS12 PDZ domain fusion protein; test: A/G assays

binding result	Binder
no binding	Biotin-ARHRVTSYTSSSVNVSSNL [CDW128A (IL8RA) C-terminal peptide AA29.1L, biotinylated]
no binding	Biotin-QATSENGHSARQHVVADTEL [CD34 C-terminal peptide AA7L, biotinylated]

molecular target: T15, PICK1 PDZ-GST fusion protein (Bos taurus (Bovine), UniProt Q2T9M1 17-105); test: A/G assays
T15 construct: Order of GST and PDZ part and limits not seen in the excerpts
T15 sequence (Q2T9M1 other isoform, or with tags, fused parts or gaps limits assumed): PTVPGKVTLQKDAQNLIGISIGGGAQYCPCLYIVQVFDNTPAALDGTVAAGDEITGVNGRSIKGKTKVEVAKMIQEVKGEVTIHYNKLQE

binding result	Binder
no binding	Biotin-ARHRVTSYTSSSVNVSSNL [CDW128A (IL8RA) C-terminal peptide AA29.1L, biotinylated]
no binding	Biotin-QATSENGHSARQHVVADTEL [CD34 C-terminal peptide AA7L, biotinylated]

molecular target: T8, GST-TAX-IP40 PDZ domain fusion protein; test: A/G assays

binding result	Binder
no binding	Biotin-ARHRVTSYTSSSVNVSSNL [CDW128A (IL8RA) C-terminal peptide AA29.1L, biotinylated]
no binding	Biotin-QATSENGHSARQHVVADTEL [CD34 C-terminal peptide AA7L, biotinylated]

molecular target: T9, GST-PTN-4 PDZ domain fusion protein; test: A/G assays

binding result	Binder
no binding	Biotin-ARHRVTSYTSSSVNVSSNL [CDW128A (IL8RA) C-terminal peptide AA29.1L, biotinylated]
no binding	Biotin-QATSENGHSARQHVVADTEL [CD34 C-terminal peptide AA7L, biotinylated]

molecular target: T10, GST-prIL16 fusion protein (PDZ domains …); test: A/G assays

binding result	Binder
no binding	Biotin-ARHRVTSYTSSSVNVSSNL [CDW128A (IL8RA) C-terminal peptide AA29.1L, biotinylated]
no binding	Biotin-QATSENGHSARQHVVADTEL [CD34 C-terminal peptide AA7L, biotinylated]

molecular target: T16, NOS1 PDZ-GST fusion protein (Homo sapiens (Human), UniProt P29475 11-100); test: A/G assays
T16 construct: Order of GST and PDZ part and limits not seen in the excerpts
T16 sequence (P29475 11-100 limits assumed): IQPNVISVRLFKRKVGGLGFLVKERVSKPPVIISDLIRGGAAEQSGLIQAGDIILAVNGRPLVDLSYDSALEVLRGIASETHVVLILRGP

binding result	Binder
no binding	Biotin-ARHRVTSYTSSSVNVSSNL [CDW128A (IL8RA) C-terminal peptide AA29.1L, biotinylated]
no binding	Biotin-QATSENGHSARQHVVADTEL [CD34 C-terminal peptide AA7L, biotinylated]

molecular target: T11, GST-MPP1 PDZ domain fusion protein; test: A/G assays

binding result	Binder
no binding	Biotin-ARHRVTSYTSSSVNVSSNL [CDW128A (IL8RA) C-terminal peptide AA29.1L, biotinylated]
no binding	Biotin-QATSENGHSARQHVVADTEL [CD34 C-terminal peptide AA7L, biotinylated]

Molecular target: T12, GST-TAX-IP2 PDZ domain fusion protein
Test: A/G assays

binding result	Binder
no binding	Biotin-ARHRVTSYTSSSVNVSSNL [CDW128A (IL8RA) C-terminal peptide AA29.1L, biotinylated]
no binding	Biotin-QATSENGHSARQHVVADTEL [CD34 C-terminal peptide AA7L, biotinylated]
